Laboratory results reported in article PMC4504036.
pKd: −log10 of the molar value.

Legend:
[1] = biological target: Recombinant wild-type phospholipid transfer protein (rPLTP) (human) (UniProt P55058); experiment: SPR; BIAcore 3000; rPLTP with C-terminal His-tag captured on anti-His tag monoclonal antibody immobilised on a CM5 chip; factor XII (0-750 nM) or factor XI injected; 50 mM Hepes, 150 mM NaCl, 5 mM CaCl2, pH 7.4; global fit, simple Langmuir model; apparent Kd
Human factor XII (human) [2] = biological target: Human factor XII (human)
Human factor XII (human) [3] = biological target: Human factor XII (human); remark: listed apart in the source

Row | Substance | pKd [1] | koff [1] | kon [1] | inhibition by rPLTP of sulfatide-stimulated factor XII autoactivation in a purified system in the presence of VLDL (factor XIIa amidolytic activity, S2302, at 15 min) (Human factor XII (human) [2]) | inhibition by rPLTP of sulfatide-induced kallikrein generation (contact activation) in plasma (S2302 amidolytic activity at 6 min) (Human factor XII (human) [3])
1 | Human factor XII (natural protein) | 6.72 | 0.006 s⁻¹ | 31000 M⁻¹ s⁻¹ |  | 
2 | Recombinant wild-type phospholipid transfer protein (rPLTP) (from UniProt P55058 18-493) (natural protein) |  |  |  | 1.2 µg/mL | 0.69 µg/mL
